Common to all, as to test: cell-based or functional assay
Experiment [1] addresses HIV-1 Env of isolate CNE20 (HIV-1).
In experiment [2] the target is HIV-1 Env of isolate CNE14 (HIV-1).
Experiment [3] deals with HIV-1 Env of isolate BZ167.ec9 (HIV-1).
In experiment [4] the target is HIV-1 Env of isolate YN192.31 (HIV-1).
Experiment [5] concerns the target HIV-1 Env of isolate CNE17 (HIV-1).
For experiment [6], the target named is HIV-1 Env of isolate CNE47 (HIV-1).
Experiment [7] deals with HIV-1 Env of isolate CNE46 (HIV-1).
For experiment [8], the target named is HIV-1 Env of isolate CNE23 (HIV-1).
The target of experiment [9] is HIV-1 Env of isolate A07412VRC12A (HIV-1).
The target of experiment [10] is HIV-1 Env of isolate GX2010.36 (HIV-1).
Experiment [11] concerns the target HIV-1 Env of isolate AE20 (HIV-1).
Experiment [12] addresses HIV-1 Env of isolate Bal.EC1 TC (HIV-1).

Consider “D1D2Fc (from UniProt P01730 26-203) (Fc fusion)”, for which the neutralization IC50 in experiment [1] amounted to 65 nM; in experiment [2] it was 105 nM; in experiment [4], 155 nM; in experiment [5] it was 11 nM; in experiment [6], 152 nM; in experiment [7], 99 nM. Also, the neutralization IC50 is more than 250 nM in experiment [8], 12 nM in experiment [10] and 50 nM in [11]. The neutralization IC90 in experiment [1] is more than 250 nM; in [2], 248 nM; in experiment [4] it was more than 250 nM; in [5] it was 231 nM; in [6], more than 250 nM; in [7], more than 250 nM. Also, the neutralization IC90 in experiment [8], in experiment [10] and in [11] was more than 250 nM throughout. Moreover, the IC50, neutralization in TZM-bl cell-based assay in experiment [3] was found to be 13 nM; in [9], 57 nM; in experiment [12], 0.6 nM. Besides, the IC90, neutralization in TZM-bl cell-based assay was 60 nM in experiment [3] and more than 250 nM in experiment [9].

The values above are taken from patent US20160039904A1, “STABILIZED SINGLE HUMAN CD4 DOMAINS AND FUSION PROTEINS” (priority 2013, published 2016).
